Sequences and labels used below:
B1: chimeric anti human CD4-antibody (chimeric IgG4) (antibody, V domains shown)
VH: EVQLQQSGTVLARPGASVQMSCKASGYSFANYWMHWVKQRPGQGLQWIGALYPGNVDTTYNQKFKDKAKLTAVTSASTAYMELSSLTNEDSAVYYCTRMGTTLEAPLDYWGQGTTLTVSS
VL: QIVLTQSPAIMSASPGEKVAMTCSARSSVSYLYWYQQKPGSSPRLLIYDTSNLASGVPVRFIGSGSGTSYSLTISRMEAEDAATYYCQQWSDYPLTFGAGTKLELK
notes: Mouse VH and VL were cloned into pANTVhG4 (human genomic IgG4 constant region) and pANTVk (human kappa constant region) and expressed in NS0 cells; also called chimeric anti-CD4 antibody; chimeric antibody
B2: monoclonal mouse anti human CD4-antibody 30F16H5 (antibody, mouse IgG1, V domains shown)
VH: B1 VH
VL: B1 VL
notes: also called Max16H5; Max.16H5
B3: modified anti-CD4 antibody VH3/VK4 (antibody, V domains shown)
VH: B1 VH with T9S, V10E, A12K, Q19K, S28T, R40A, S91T, T115L, L116V
VL: B1 VL with M11L, V19A, V59S, S69D, R76S, L105I
B4: modified anti-CD4 antibody VH2/VK2 (antibody, V domains shown)
VH: EVQLQQSGSELKRPGASVKVSCKASGYTFANYWMHWVKQAPGQGLQWIGALYPGNVDTTYNQKFKDKAKLTADTSASTAYMELSSLTNEDTAVYYCTRMGTTLEAPLDYWGQGTLVTVSS
VL: B1 VL with I10T, M11L, V19A, V59S, I62S, S69D, R76S, L105I
B5: modified anti-CD4 antibody VH2/VK1 (antibody, V domains shown)
VH: B4 VH
VL: B1 VL with I10T, M11L, V19A, L45A, V59S, I62S, S69D, R76S, L105I
B6: modified anti-CD4 antibody VH4/VK2 (antibody, V domains shown)
VH: B4 VH with S9T, V20M, D73V, T91S, L115T
VL: B1 VL with I10T, M11L, V19A, V59S, I62S, S69D, R76S, L105I
B7: modified anti-CD4 antibody VH1/VK4 (antibody, V domains shown)
VH: B4 VH with K38R, L70I, A72R
VL: B1 VL with M11L, V19A, V59S, S69D, R76S, L105I
B8: modified anti-CD4 antibody VH2/VK4 (antibody, V domains shown)
VH: B4 VH
VL: B1 VL with M11L, V19A, V59S, S69D, R76S, L105I
B9: modified anti-CD4 antibody VH1/VK1 (antibody, V domains shown)
VH: B4 VH with K38R, L70I, A72R
VL: B1 VL with I10T, M11L, V19A, L45A, V59S, I62S, S69D, R76S, L105I
notes: VK1=20, VK2=18, VK3=16, VK4=14
B10: modified anti-CD4 antibody VH4/VK4 (antibody, V domains shown)
VH: B4 VH with S9T, V20M, D73V, T91S, L115T
VL: B1 VL with M11L, V19A, V59S, S69D, R76S, L105I
B11: modified anti-CD4 antibody VH3/VK2 (antibody, V domains shown)
VH: B4 VH with V20M, D73V
VL: B1 VL with I10T, M11L, V19A, V59S, I62S, S69D, R76S, L105I
B12: modified anti-CD4 antibody VH4/VK1 (antibody, V domains shown)
VH: B4 VH with S9T, V20M, D73V, T91S, L115T
VL: B1 VL with I10T, M11L, V19A, L45A, V59S, I62S, S69D, R76S, L105I

Where a chain is given by its changes, count along the chain named.

One experiment deals with T1, human CD4 (coated on ELISA plate) (human, UniProt P01730 26-396, limits assumed). Kind of experiment: competition ELISA, plate-coated CD4, competitor biotinylated mouse anti-CD4 at 0.2 µg/ml. The method, then:
The chimeric antibody was tested in an ELISA-based competition assay using mouse anti-CD4 antibody, biotinylated using a B-Tag micro biotinylation kit (Sigma, Poole UK). A dilution series of chimeric IgG4 or control mouse antibody from 10 μg/ml to 0.009 μg/ml was premixed with a constant concentration of biotinylated anti-CD4 (0.2 μg/ml) before incubating 100 μl/well for 1 hour at room temperature in a Nunc MaxiSorp 96 well flat bottom microtitre plate (Fisher, Loughborough, UK) pre-coated with 50 μl/well of 1 μg/ml CD4. The binding of the biotinylated mAb was determined by incubating for 1 h at room temperature with 100 μl/well of a 1/500 dilution of streptavidin-HRP (Sigma), followed by detection with 100 μl/well OPD substrate (Sigma). After stopping the reaction with 50 μl/well 3M HCl, absorbance at 490 nm was measured using a Dynex Technologies (Worthing, UK) MRX TC II plate reader.
Therefore the correct variable region sequences have been identified and cloned.
(In general: In an ELISA, binding on a coated surface is turned into a signal by an enzyme label.)
The term IC50 denotes the point on the concentration scale where inhibition reaches its midpoint. The molecule B1 showed an IC50 of 0.25 µg/mL.
Same read-out and setting: for B2 the value was 0.18 µg/mL.

The target of another experiment is T1, human CD4 (coated on ELISA plate). In words: competition ELISA, plate-coated human CD4, competitor biotinylated mouse antibody at 0.2 µg/ml.
As to B3, the “Relative Binding (IC50 of test sample divided by IC50 of mouse antibody)” value was found to be 1.44 fold.
On the same count and under the same terms, for B4 the value was 0.96 fold; for B5, 8.66 fold.
Consider B6, for which the “Relative Binding (IC50 of test sample divided by IC50 of mouse antibody)” value was determined as 0.73 fold.
As to B7, the “Relative Binding (IC50 of test sample divided by IC50 of mouse antibody)” value is 5.06 fold.
The same measure, in the same setting: for B8 the value was 1.44 fold; for B9, 0.14 fold.
The same measure, in the same setting: in the case of B10 it was 0.49 fold; in that of B11, 1.77 fold.
As for B12, the “Relative Binding (IC50 of test sample divided by IC50 of mouse antibody)” value came to 3.89 fold.

(Values after patent US20130330334A1 (FRAUNHOFER GESELLSCHAFT ZUR F RDERUNG DER ANGEWANDTEN …, published 2013).)
